Target: GST-Rac1A, active (GTPγs-bound) (Dictyostelium) (UniProt P34144)
Assay: pull-down; GST-Rac on glutathione magnetic agarose beads, loaded with GTPγs; Dictyostelium lysate (50 mM Tris HCl pH 8, 100 mM NaCl, 30 mM MgCl2, 0.1% Triton X-100, 1 mM DTT) added for 1 hour at 4°C; immunoblot anti-GFP

immunoblot quantification of binding to active Rac1 (%): 1.9%
Substance: GFP-WASP (Dictyostelium Wiskott-Aldrich syndrome protein, wild type) (natural protein)

From publication PMC6926487
